These results are taken from patent publication US20240255507A1 (SYSMEX, published 2024).

Sequences and labels used below:
B1: CR3022 (antibody, V domains shown)
VH: QMQLVQSGTEVKKPGESLKISCKGSGYGFITYWIGWVRQMPGKGLEWMGIIYPGDSETRYSPSFQGQVTISADKSINTAYLQWSSLKASDTAIYYCAGGSGISTPMDVWGQGTTVTVSS
VL: DIQMTQSPSSLSASVGDRVTITCRASQSIYSALNWYQQKPGKAPKLLIYAASALQSGVPSRFSGSGSGTDFTLTISSLQPEDFATYYCQQTDIHPYTFGQGTKVEIKR
B2: REGN10933 (antibody, V domains shown)
VH: QVQLVESGGGLVKPGGSLRLSCAASGFTFSDYYMSWIRQAPGKGLEWVSYITYSGSTIYYADSVKGRFTISRDNAKSSLYLQMNSLRAEDTAVYYCARDRGTTMVPFDYWGQGTLVTVSS
VL: DIQMTQSPSSLSASVGDRVTITCQASQDITNYLNWYQQKPGKAPKLLIYAASNLETGVPSRFSGSGSGTDFTFTISGLQPEDIATYYCQQYDNLPLTFGGGTKVEIKR
B3: CV30 (antibody, V domains shown)
VH: EVQLVESGGGLIQPGGSLRLSCAASGVIVSSNYMSWVRQAPGKGLEWVSVIYSGGSTYYADSVKGRFTISRDNSKNTLYLQMNSLRAEDTAVYYCARDLDVSGGMDVWGQGTTVTVSS
VL: not shown
B4: REGN10987 (antibody, V domains shown)
VH: QVQLVESGGGVVQPGRSLRLSCAASGFTFSNYAMYWVRQAPGKGLEWVAVISYDGSNKYYADSVKGRFTISRDNSKNTLYLQMNSLRTEDTAVYYCASGSDYGDYLLVYWGQGTLVTVSS
VL: QSALTQPASVSGSPGQSITISCTGTSSDVGGYNYVSWYQQHPGKAPKLMIYDVSKRPSGVSNRFSGSKSGNTASLTISGLQSEDEADYYCNSLTSISTWVFGGGTKLTVLR
B5: HKU9 wild-type RBD (other)
chain: SYCTPPYSVLQDPPQPVVWRRYMLYDCVFDFTVVVDSLPTHQLQCYGVSPRRLASMCYGSVTLDVMRINETHLNNLFNRVPDTFSLYNYALPDNFYGCLHAFYLNSTAPYAVANRFPIKPGGRQSNSAFIDTVINAAHYSPFSYVYGLAVITLKPAAGSKLVCPVAN
B6: BD23 (antibody, V domains shown)
VH: QVQLVQSGSELKKPGASVKVSCKASGYTFTSYAMNWVRQAPGQGLEWMGWINTNTGNPTYAQGFTGRFVFSLDTSVSTAYLQISSLKAEDTAVYYCARPQGGSSWYRDYYYGMDVWGQGTTVTVSS
VL: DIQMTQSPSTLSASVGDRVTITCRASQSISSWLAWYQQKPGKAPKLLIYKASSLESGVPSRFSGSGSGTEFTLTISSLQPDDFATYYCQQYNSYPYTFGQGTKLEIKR

One experiment concerns the target SARS-CoV-2 wild-type RBD (SARS-CoV-2, UniProt P0DTC2 319-541). Briefly: ELISA, antigen coated, binder 1 µg/mL, chemiluminescence. (In general: In an ELISA, binding on a coated surface is turned into a signal by an enzyme label.)
Experiment [1] has as its target B5. The description is as above.
In experiment [2] the target is T1, Zaria wild-type RBD (coronavirus Zaria strain (Hibecovirus …)). The description is as above.
Experiment [3] has as its target T2, Hp wild-type RBD (coronavirus Hp strain (Hibecovirus …)). The experiment is described as above.
For experiment [4], the target named is T3, GCCDC1 wild-type RBD (coronavirus GCCDC1 strain (Nobecovirus …)). The description is as above.
Experiment [5] deals with B5. Briefly: ELISA, antigen coated.
Experiment [6] concerns the target T1, Zaria wild-type RBD. Briefly: ELISA, antigen coated.
Experiment [7] has as its target T2, Hp wild-type RBD. The experiment in a line: ELISA, antigen coated.
In experiment [8] the target is T3, GCCDC1 wild-type RBD. Briefly: ELISA, antigen coated.
The target in experiment [9] is T4, ACE2-hFc (AC2-H 5257, Acrobiosystems) (human, UniProt Q9BYF1 18-740).
T4 construct: also called ACE2-Fc
T4 sequence (Q9BYF1 18-740 limits assumed): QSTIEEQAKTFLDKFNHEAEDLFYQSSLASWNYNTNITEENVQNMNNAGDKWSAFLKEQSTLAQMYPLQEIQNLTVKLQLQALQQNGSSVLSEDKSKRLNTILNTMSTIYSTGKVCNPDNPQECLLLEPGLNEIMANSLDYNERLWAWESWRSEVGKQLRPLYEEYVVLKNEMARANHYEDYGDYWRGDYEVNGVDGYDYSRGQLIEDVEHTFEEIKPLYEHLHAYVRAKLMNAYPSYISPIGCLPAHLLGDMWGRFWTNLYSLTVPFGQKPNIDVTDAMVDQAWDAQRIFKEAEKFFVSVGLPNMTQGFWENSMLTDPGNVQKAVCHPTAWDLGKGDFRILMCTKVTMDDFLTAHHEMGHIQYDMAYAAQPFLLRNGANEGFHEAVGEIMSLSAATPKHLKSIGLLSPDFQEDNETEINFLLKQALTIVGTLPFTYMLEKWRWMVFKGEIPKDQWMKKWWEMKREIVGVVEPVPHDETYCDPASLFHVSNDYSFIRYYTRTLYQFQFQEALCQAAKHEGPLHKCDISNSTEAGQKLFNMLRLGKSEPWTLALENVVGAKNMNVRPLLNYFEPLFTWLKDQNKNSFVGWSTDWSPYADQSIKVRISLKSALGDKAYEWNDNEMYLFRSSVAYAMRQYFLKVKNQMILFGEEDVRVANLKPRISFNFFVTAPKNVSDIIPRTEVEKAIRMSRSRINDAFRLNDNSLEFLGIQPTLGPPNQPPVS
The experiment in a line: ELISA, antigen coated.

On to B1, for which the signal intensity in the experiment with SARS-CoV-2 wild-type RBD is 1.07e+06; with HKU9 wild-type RBD [1] it was 433; with Zaria wild-type RBD [2], 330; with Hp wild-type RBD [3] it was 100; with GCCDC1 wild-type RBD [4], 100. Also, the binding result with HKU9 wild-type RBD [5], with Zaria wild-type RBD [6], with Hp wild-type RBD [7] and with GCCDC1 wild-type RBD [8] was “no binding (tested: 1 µg/mL)” throughout.
In the experiment with HKU9 wild-type RBD [1], B2 showed a signal intensity of 943. In the experiment with HKU9 wild-type RBD [5], the binding result is on record as “no binding (tested: 1 µg/mL)”.
With B3, the signal intensity with SARS-CoV-2 wild-type RBD worked out at 921000; in the experiment with HKU9 wild-type RBD [1], 583; with Zaria wild-type RBD [2], 100; with Hp wild-type RBD [3], 150; with GCCDC1 wild-type RBD [4] it was 130. In addition, the binding result with HKU9 wild-type RBD [5], in the experiment with Zaria wild-type RBD [6], with Hp wild-type RBD [7] and in the experiment with GCCDC1 wild-type RBD [8] was “no binding (tested: 1 µg/mL)” in each case.
B4 yielded a signal intensity in the experiment with HKU9 wild-type RBD [1] of 1120. For the same molecule, the binding result with HKU9 wild-type RBD [5] is recorded as “no binding (tested: 1 µg/mL)”.
Take B5: in experiment [9], the binding result is “no binding (tested: 1 µg/mL)”.
The molecule B6 registered a signal intensity with HKU9 wild-type RBD [1] of 803. In the experiment with HKU9 wild-type RBD [5], the binding result is listed as “no binding (tested: 1 µg/mL)”.
